# Data reported in patent US20240309072A1.
# Target: SARS-COV-2 Spike, Omicron variant BA.4 + R346T (BA.4.6) (SARS-COV-2), P0DTC2
# Assay: cell-based or functional assay
Binder,Fold change over R10987 against D614G [fold],pseudovirus neutralization IC50 [nM]
"REGN14315 (antibody, V domains shown) VH: QVQLVQSGAEVKKPGSSVKVSCKASGDTFSTYAINWVRQAPGQGLEWMGRFIHIFGTANYAQKFQGRVTITADESTSTAYMELRSLRSEDTAVYYCARDGVDYGDYRPDYWGQGTLVTVSS VL: EIVLTQSPGTLSLSPGERATLSCRASQSVSSNYLAWYQQKPGQAPRLLIYGASSRATGIPERFSGSGSGTDFTLTISRLEPEDFAVYYCQQYGSSLYTFGQGTKLEIK",255,1.35
REGN14315 + REGN10987 (protein) VH 1: QVQLVQSGAEVKKPGSSVKVSCKASGDTFSTYAINWVRQAPGQGLEWMGRFIHIFGTANYAQKFQGRVTITADESTSTAYMELRSLRSEDTAVYYCARDGVDYGDYRPDYWGQGTLVTVSS VL 1: EIVLTQSPGTLSLSPGERATLSCRASQSVSSNYLAWYQQKPGQAPRLLIYGASSRATGIPERFSGSGSGTDFTLTISRLEPEDFAVYYCQQYGSSLYTFGQGTKLEIK VH 2: QVQLVESGGGVVQPGRSLRLSCAASGFTFSNYAMYWVRQAPGKGLEWVAVISYDGSNKYYADSVKGRFTISRDNSKNTLYLQMNSLRTEDTAVYYCASGSDYGDYLLVYWGQGTLVTVSS VL 2: QSALTQPASVSGSPGQSITISCTGTSSDVGGYNYVSWYQQHPGKAPKLMIYDVSKRPSGVSNRFSGSKSGNTASLTISGLQSEDEADYYCNSLTSISTWVFGGGTKLTVL,132,0.698
"REGN10987 (antibody, V domains shown) VH: QVQLVESGGGVVQPGRSLRLSCAASGFTFSNYAMYWVRQAPGKGLEWVAVISYDGSNKYYADSVKGRFTISRDNSKNTLYLQMNSLRTEDTAVYYCASGSDYGDYLLVYWGQGTLVTVSS VL: QSALTQPASVSGSPGQSITISCTGTSSDVGGYNYVSWYQQHPGKAPKLMIYDVSKRPSGVSNRFSGSKSGNTASLTISGLQSEDEADYYCNSLTSISTWVFGGGTKLTVL",236,1.25
